Source: paper PMC6264893

Experiments:
[1] = biological target: prothymosin α (unlabeled, wildtype) (human) (UniProt P06454); assay: NMR titration
[2] = biological target: ProTα labeled at positions 56 and 110 (FRET-labeled prothymosin α) (human) (UniProt P06454); assay: FRET or BRET
[3] = biological target: ProTα labeled at positions 56 and 110 (FRET-labeled prothymosin α) (human) (UniProt P06454); assay: stopped-flow FRET kinetics

Chain of linker histone H1.0 (P07305 whole entry): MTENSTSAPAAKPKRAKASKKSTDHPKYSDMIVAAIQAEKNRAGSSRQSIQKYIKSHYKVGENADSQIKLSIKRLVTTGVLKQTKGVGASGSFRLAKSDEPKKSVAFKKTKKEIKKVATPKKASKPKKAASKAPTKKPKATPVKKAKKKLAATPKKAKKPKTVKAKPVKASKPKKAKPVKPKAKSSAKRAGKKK

Substance	stoichiometry N [1]	Kd [2] [nM]	koff [3] [s⁻¹]
globular domain of H1 (domain or fragment)	> 4	1900	–
linker histone H1.0 (from UniProt P07305 1-194) (natural protein)	–	–	0.0065
